{"source": "patent US6046165", "key": {"[1]": {"target": "MAD full length (B-H) (Drosophila melanogaster) (UniProt P42003)", "sequence (P42003 whole entry)": "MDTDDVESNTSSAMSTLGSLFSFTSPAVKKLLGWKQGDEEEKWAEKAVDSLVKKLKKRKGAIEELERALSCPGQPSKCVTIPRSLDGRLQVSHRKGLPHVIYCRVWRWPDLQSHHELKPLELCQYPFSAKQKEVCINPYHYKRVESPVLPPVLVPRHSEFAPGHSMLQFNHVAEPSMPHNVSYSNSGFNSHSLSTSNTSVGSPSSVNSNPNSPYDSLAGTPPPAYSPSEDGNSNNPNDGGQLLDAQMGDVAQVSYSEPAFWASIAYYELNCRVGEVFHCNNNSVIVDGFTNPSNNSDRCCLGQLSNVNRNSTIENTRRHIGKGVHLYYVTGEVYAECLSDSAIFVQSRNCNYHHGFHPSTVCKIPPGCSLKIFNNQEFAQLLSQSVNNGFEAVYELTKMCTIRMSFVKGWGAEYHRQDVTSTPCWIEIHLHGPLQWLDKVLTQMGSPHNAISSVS", "experiment": "EMSA", "conditions": "approximately 100-fold lower than MAD^N"}, "[2]": {"target": "MAD^N (B-Pv) (Drosophila melanogaster) (UniProt P42003)", "sequence (P42003 1-241)": "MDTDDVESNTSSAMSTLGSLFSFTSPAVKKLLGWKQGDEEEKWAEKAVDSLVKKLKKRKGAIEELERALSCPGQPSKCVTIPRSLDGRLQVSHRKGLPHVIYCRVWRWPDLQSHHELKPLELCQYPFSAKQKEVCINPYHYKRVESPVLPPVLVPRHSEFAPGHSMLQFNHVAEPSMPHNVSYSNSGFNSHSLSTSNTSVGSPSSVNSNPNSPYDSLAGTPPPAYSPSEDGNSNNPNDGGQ", "experiment": "EMSA"}}, "data": [{"sequence": "ATTC (double strand) [Vg 20 bp]", "values": [{"measurement": "binding signal (fraction of MAD^N)", "setting": "[1]", "result": 0.01}]}, {"sequence": "ATTC (double strand) [MAD binding site (FIG. 7B)]", "values": [{"measurement": "binding signal", "setting": "[2]; wild-type reference", "result": 1, "unit": "reference"}]}, {"sequence": "ATTC (double strand) [MAD binding site GCT to CGC]", "values": [{"measurement": "binding signal", "setting": "[2]; increased affinity vs wild-type site, MBP fusion", "result": 6, "unit": "fold vs n15"}]}]}
